Measurements: the supplement of paper PMC9170038

Test system: MS2 coat protein
Assay: apparent KD of MS2 coat protein; higher = weaker reporter binding
Details: Eterna round: R107
Procedure, shortened: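 Illumina sequencing clusters were used for on-chip transcription of designed RNA switches. Titration with SNAP-549-labelled MS2 coat protein followed, in twofold steps from 0.7 or 1.5 nM to 3 µM in 100 mM Tris-HCl pH 7.5, 80 mM KCl, 4 mM MgCl2, without or with constant ligand. Apparent KD is each design's median of fits to normalised cluster binding curves.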

[1] = input ligand: theophylline 20 uM
[2] = input ligand: theophylline 2 mM
[3] = input ligand: tryptophan 2.4 mM

Sequence | apparent KD of MS2 coat protein (input ligand: arginine 13.2 mM) [nM] | apparent KD of MS2 coat protein (input ligand: none) [nM] | apparent KD of MS2 coat protein [1] [nM] | apparent KD of MS2 coat protein [2] [nM] | apparent KD of MS2 coat protein [3] [nM]
GGGCCCGGGCCGGAAACGGCCCGGGCCCUGCGAGGACCGGUACGGCCGCCACUCGCUCGAGUGGGUACAUGAGGAUCACCCAUGU [#17 Exclusion Tryptophan A] | 17.7 | 28.4 | 45.8 | 33.3 | 31.9
GGGUCGCGUUCGGCCGCCACUUGGAAACAUGAGGAUCACCCAUGUCAUAUGGUGGGACAUGUUGUAAGGACCGGGAACCGUCCUA [theeternabot_exclusion_MS2_Trp_B_11] | 34.6 |  | 82.1 | 83.4 | 
GGGUGCGGCACGGCCGCCACUGCGGUGGUGUGACAUGAGGAUCACCCAUGUUGUCAUGCGGCCCUUAGGACCGGGUGCCGUGCCC [#1 Exclusion - Tryptophan B Attempt #13 (HarryS)] | 39.5 | 33.7 | 60.9 | 62.4 | 43.8
GGGUGGUAGGCGGCCGCCACUGAUUUUCAUUCCUGGAUGACAUGAGGAUCACCCAUGUUUACGGGCAGGACCGGGCCUGCUGUGG [aaaW] | 34.8 |  | 68.4 | 66.6 | 
GGGUGUGAUCCGGAUACCAGCGAACAUGAGGAUCACCCAUGUGACCUGAGAUCGGCUCUACGCCCUUGGCAGCCGCGGUCGCAGG [Same State Theophylline B GF13] | 23 |  | 19.5 | 15.4 | 12.4
GGUACAUGAGGAUCACCCAUGUAUGGGUACCGAGGACCGGUACGGCCGCCACUCGCAGGACAUGAGGAUCACCCAUGUGCAACCG [SSTA DOUBLE!!! :-D #11] | 61 | 142 | 144 | 184 | 312
GGUCGCCAACAUGGGUCGGUGAAAUGGGAAGGAGCGAGCGAGAGCUCAGGUAGGUCGCCCAAACAUGAGGAUCACCCAUGUAAUA [SSArg-A #28 UUU adds V2] | 21 | 125 | 113 | 74.8 | 53.4
GGUCUCGAGAGCGAUACCAGCUUGAUCGUACUGGCCUGGUACAUGAGGAUCACCCAUGUAAGCCCUUGGCAGCGCUCUCGAGACC [#1 Exclusion - Theophylline B Attempt #7 (HarryS)] | 9.53 | 11.4 | 15.6 | 30.1 | 14
GGUCUGAAAACCGAUCAAAGAUCGGAAGAUACCAGAGGGUGAUCCCUCCCUUGGCAGCUUCACAUGAGGAUCACCCAUGUAGACC [Omei inspired #BothOrNeither] | 29.3 |  | 188 |  | 82.5
GGUGGCGGGACUGAUACCAGCCACCACCGAUAGACCACAUGAGGAUCACCCAUGUUGGGUGGCCCUUGGCAGCAGUCUUGCUGCU [#1 Same State - Theophylline B Attempt #13 (HarryS)] | 64.1 |  | 409 |  | 586
GGUGGCUGGAUCGAUACCAGCCACCACCGAUAGACCACAUGAGGAUCACCCAUGUUGGGUGGCCCUUGGCAGCGGUCCGGCUGCC [#1 Same State - Theophylline B Attempt #7 (HarryS)] | 126 |  | 679 |  | 759
GGUGGGAGCAACGAUACCAGCUACAUGAGGAUCACCCAUGUGGAAUGGGAGUCAACAGCGAGCCCUUGGCAGCGUUAGACCCAAA [Bebeeserdi] | 13.2 | 11.3 | 20.4 | 128 | 11.6
GGUUGAUAUAUAUAUAUAUUGAUUACUGAAGGAGCGGGAAAUAACCCAGGUAGGUCGCAGAGAUCCACAUGAGGAUCACCCAUGU [!0.F] | 31.9 | 42.7 | 50.4 | 60.5 | 56.9
GGUUGGUGUGGAGACAUAUUGAUUACUGAAGGAGCGGGAAUAAACCCAGGUAGGUCGCAGAGAUCCACAUGAGGAUCACCCAUGU [!0.P] | 121 | 44.8 | 42.8 | 41.2 | 22.4
GUAAUAUACAGAAGGAGCGUGAUAGUGAGCUUGUACAACAUGAGGAUCACCCAUGUAUAAUCACAGGUAGGUCGCUGUAUAGGGU [Arg B SS t2] | 17 | 16.1 | 21.9 | 15.4 | 17.8
GUACAUGAGGAUCACCCAUGUAUAGUUGAAGGAGCGACCGGAGGGUCAGGUAGGUCGCAGCACAUGGCGUCAACCCGUGUAUGCC [#1 Exclusion - Arginine A Attempt #25 (Inspired by Pi)] | 15.2 | 17.3 | 22.7 | 18.5 | 18.6
